In publication PMC5932034, “Structures of chaperone-substrate complexes docked onto the export gate in a type III secretion system” (Nature Communications, 2018):

How the values were obtained:
Conditions in all cases: both partners purified
FliT = biological target: T1, FliT (Salmonella enterica serovar Typhimurium …, UniProt P0A1N2 1-122); experiment: crystal structure; ternary complexes of FlhA^C with the fused chaperone–substrate constructs; proteins at 10 g/L
T1 construct: FliT, flagellar chaperone of FliD, Salmonella enterica serovar Typhimurium ST313; Used free in the NMR titration; in the structures it stands as the FliT part of the fused chain m9; also called flagellar chaperone FliT; substrate-free FliT; source: E. coli BL21(DE3), purified (Ni Sepharose, TEV tag removal, Superdex 75)
T1 sequence: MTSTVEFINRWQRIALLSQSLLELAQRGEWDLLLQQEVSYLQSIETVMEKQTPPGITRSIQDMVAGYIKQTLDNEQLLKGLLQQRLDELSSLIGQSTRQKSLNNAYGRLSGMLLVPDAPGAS

[1] = biological target: T2, cytoplasmic domain of Salmonella enterica serovar Typhimurium FlhA (FlhA^C) (Salmonella enterica serovar Typhimurium …, UniProt P40729 362-692); experiment: NMR titration; unlabelled partner added to isotopically labelled FlhA^C (and unlabelled FlhA^C to labelled chaperone–substrate complex); 25 °C; 50 mM NaPi pH 6.8, 300 mM NaCl, 0.05% NaN3; typically 0.3 mM labelled protein
T2 construct: FlhA, globular cytoplasmic domain, Salmonella enterica serovar Typhimurium ST313, residues 362-692 (36.4 kDa); also called export gate platform protein; source: E. coli BL21(DE3), purified (Ni Sepharose, TEV tag removal, Superdex 75)
T2 sequence: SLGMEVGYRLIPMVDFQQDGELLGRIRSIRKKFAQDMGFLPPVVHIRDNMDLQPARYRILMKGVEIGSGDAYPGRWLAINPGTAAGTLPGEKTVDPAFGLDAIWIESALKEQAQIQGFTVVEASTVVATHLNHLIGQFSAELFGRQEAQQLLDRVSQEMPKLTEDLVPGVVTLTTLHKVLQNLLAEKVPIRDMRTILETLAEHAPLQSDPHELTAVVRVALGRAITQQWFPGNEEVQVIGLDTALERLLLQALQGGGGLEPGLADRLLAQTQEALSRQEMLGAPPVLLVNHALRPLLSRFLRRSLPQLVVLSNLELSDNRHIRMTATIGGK

[2] = biological target: T2, cytoplasmic domain of Salmonella …; experiment: ITC; FlhA^C and variants (0.1–0.2 mM) in the cell, FliT-FliD, FliS-FliC and variants (1.0–2.0 mM) in the syringe; 25 °C; 50 mM NaPi pH 6.8, 300 mM NaCl, 0.05% NaN3; one-site binding model
FliS = biological target: T3, FliS (UniProt P26609 1-135); experiment: crystal structure; ternary complexes of FlhA^C with the fused chaperone–substrate constructs; proteins at 10 g/L
T3 construct: FliS, flagellar chaperone of flagellin FliC; Used free in the NMR titration; in the crystal structure it stands as the FliS part of the fused chain m10; also called flagellar chaperone FliS; substrate-free FliS; source: E. coli BL21(DE3), purified (Ni Sepharose, TEV tag removal, Superdex 75)
T3 sequence: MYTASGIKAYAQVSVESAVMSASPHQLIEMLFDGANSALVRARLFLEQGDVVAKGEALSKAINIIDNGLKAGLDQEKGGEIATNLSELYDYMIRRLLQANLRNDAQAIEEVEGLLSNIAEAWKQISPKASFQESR

B1: FliD^C (last 40 C-terminal residues of FliD) (domain or fragment)
chain: SIDETVARYKAQFTQLDTMMSKLNNTSSYLTQQFTAMNKS
notes: source: E. coli BL21(DE3), purified; stands as a part of the fused chain m9
binding result (FliT): binds

B2: FlgN (natural protein)
chain: MTRLSEILDQMTTVLNDLKTVMDAEQQQLSVGQINGSQLQRITEEKSSLLATLDYLEQQRRLEQNAQRSANDDIAERWQAITEKTQHLRDLNQHNGWLLEGQIERNQQALEVLKPHQEPTLYGADGQTSVSHRGGKKISI
notes: FlgN, chaperone of FlgK and FlgL, Salmonella enterica serovar Typhimurium ST313; also called chaperone FlgN; FlgN without substrate; source: E. coli BL21(DE3), purified (Ni Sepharose, TEV tag removal, Superdex 75)
binding result [1]: binds

B3: FliS−FliC chaperone–substrate complex (non-fused) (complex)
chain 1: T3 sequence
chain 2: […]
notes: FliS; FliC, flagellin; Complex formed beforehand and added to FlhA^C; source: E. coli BL21(DE3), purified (Ni Sepharose, TEV tag removal, Superdex 75)
Kd [2]: ~8 µM

B4: FliC^C (FliC residues 454–495) (domain or fragment)
chain: IEDSDYATEVSNMSRAQILQQAGTSVLAQANQVPQNVLSLLR
notes: FliC^C: flagellin FliC residues 454-495;; source: E. coli BL21(DE3), purified; stands as a part of the fused chain m10
binding result (FliS): binds
